Among the data in paper PMC3156093 are binding signal values, retold here.

The target of the data set is EcoRV restriction endonuclease (UniProt P04390 1-245). Put plainly: competition.
Sequence of EcoRV restriction endonuclease (P04390 whole entry): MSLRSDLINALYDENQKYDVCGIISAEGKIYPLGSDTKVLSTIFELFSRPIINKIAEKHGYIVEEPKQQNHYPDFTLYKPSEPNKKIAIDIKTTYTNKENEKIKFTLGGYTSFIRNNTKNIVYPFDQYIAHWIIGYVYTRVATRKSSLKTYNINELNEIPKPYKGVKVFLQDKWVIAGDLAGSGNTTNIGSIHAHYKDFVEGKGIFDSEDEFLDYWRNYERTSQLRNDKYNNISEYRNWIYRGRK

B1: 30 bp specific site oligonucleotide (dsDNA)
DNA 1: CGGGCCTCTTGCGGGATATCGTCCATTCCG
DNA 2: CGGAATGGACGATATCCCGCAAGAGGCCCG
Consider B1, for which the binding signal is < 9 % N1 complex remaining at 30-fold excess competitor.
